Experimental data reported in article PMC11112752 (Biochemistry, 2024).

How the values were obtained:
[1] = biological target: the molecule itself; experiment: pull-down
[2] = biological target: T1, SCOV2 nsp1 (SARS coronavirus 2, UniProt P0DTD1 1-180); experiment: EMSA; conditions: protein: recombinant; tags: expressed as GST fusion (pGEX); label: biotin; hairpin
[3] = biological target: T2, SCOV1 nsp1 (SARS coronavirus 1 (Urbani strain), UniProt P0C6X7 1-180); experiment: EMSA; prefolded RNA; S and L complexes, n=4; conditions: protein: recombinant; tags: expressed as GST fusion (pGEX); untagged 19 kDa form described, tag state in EMSA not explicit; label: biotin; hairpin
[4] = biological target: T2, SCOV1 nsp1; experiment: EMSA; conditions: protein: recombinant; tags: expressed as GST fusion (pGEX); untagged 19 kDa form described, tag state in EMSA not explicit; label: biotin; stem-loop (-6.83 kcal/mol, RNAfold)
[5] = biological target: T1, SCOV2 nsp1; experiment: EMSA; 7 uM nsp1; conditions: protein: recombinant; tags: expressed as GST fusion (pGEX); label: biotin; hairpin
[6] = biological target: T2, SCOV1 nsp1; experiment: EMSA; 7 uM nsp1; slow-moving complex; conditions: protein: recombinant; tags: expressed as GST fusion (pGEX); untagged 19 kDa form described, tag state in EMSA not explicit; label: biotin; hairpin

B1: SARS coronavirus 1 nonstructural protein 1 (nsp1) (natural protein)
chain: MESLVLGVNEKTHVQLSLPVLQVRDVLVRGFGDSVEEALSEAREHLKNGTCGLVELEKGVLPQLEQPYVFIKRSDALSTNHGHKVVELVAEMDGIQYGRSGITLGVLVPHVGETPIAYRNVLLRKNGNKGAGGHSYGIDLKSYDLGDELGTDPIEDYEQNWNTKHGSGALRELTRELNGG
Does B1 bind [1]?
Result: binds

B2: SCOV1-SL1 (structured_RNA)
RNA: AUAUUAGGUUUUUACCUACCCAGGAAAAGCCAACCAACCUCGAU
Does B2 bind [2]?
Result: binds

What about the Kd [3] of the same binder?
The Kd was 1400 ± 120 nM.

B3: control RNA (EMSA kit) (structured_RNA)
RNA: UCCUGCUUCAACAGUGCUUGGACGGAAC
Does B3 bind [4]?
Result: no binding

B4: SCOV2-SL1 (structured_RNA)
RNA: AUUAAAGGUUUAUACCUUCCCAGGUAACAAAACCAACCAACUUUC
Does B4 bind [5]?
Result: binds

Does B4 bind [6]?
Result: binds
